Reference: publication PMC11617674, “The activity of the ribonucleotide monophosphatase UmpH is controlled by interaction with the GlnK signaling protein in Escherichia coli” (The Journal of Biological Chemistry, 2024)

Columns and labels:
[1] = biological target: UmpH (ribonucleotide monophosphatase), untagged recombinant (E. coli) (UniProt P0AF24)
[2] = biological target: UmpH (ribonucleotide monophosphatase), untagged recombinant (E. coli) (UniProt P0AF24); remark: listed apart in the source
[3] = biological target: His-GlnK (E. coli PII signaling protein GlnK, N-terminal His tag) (E. coli) (UniProt P0AC55); test: BLI; His-GlnK on Ni-NTA biosensor, UmpH as analyte; 20 mM Hepes pH 7.4, 50 mM KCl, 5 mM MgCl2, 2 mM DTT, 2 mM NAG; 1 mM ADP; 1:1 (GlnK trimer:UmpH monomer) model
Sequence of His-GlnK (E. coli PII signaling protein GlnK, N-terminal His tag) (E. coli) (P0AC55 whole entry): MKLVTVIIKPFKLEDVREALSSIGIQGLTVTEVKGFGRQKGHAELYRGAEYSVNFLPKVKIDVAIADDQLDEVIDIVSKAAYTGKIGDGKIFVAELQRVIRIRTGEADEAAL

[4] = biological target: His-GlnK (E. coli PII signaling protein GlnK, N-terminal His tag) (E. coli) (UniProt P0AC55); test: BLI; His-GlnK on Ni-NTA biosensor, UmpH as analyte; 20 mM Hepes pH 7.4, 50 mM KCl, 5 mM MgCl2, 2 mM DTT, 2 mM NAG; no effector; 1:1 (GlnK trimer:UmpH monomer) model
[5] = biological target: His-GlnK (E. coli PII signaling protein GlnK, N-terminal His tag) (E. coli) (UniProt P0AC55); test: BLI; His-GlnK on Ni-NTA biosensor, UmpH as analyte; 20 mM Hepes pH 7.4, 50 mM KCl, 5 mM MgCl2, 2 mM DTT, 2 mM NAG; 1 mM ATP; 1:1 (GlnK trimer:UmpH monomer) model

Sequence of UmpH (ribonucleotide monophosphatase), untagged recombinant (E. coli) (P0AF24 whole entry): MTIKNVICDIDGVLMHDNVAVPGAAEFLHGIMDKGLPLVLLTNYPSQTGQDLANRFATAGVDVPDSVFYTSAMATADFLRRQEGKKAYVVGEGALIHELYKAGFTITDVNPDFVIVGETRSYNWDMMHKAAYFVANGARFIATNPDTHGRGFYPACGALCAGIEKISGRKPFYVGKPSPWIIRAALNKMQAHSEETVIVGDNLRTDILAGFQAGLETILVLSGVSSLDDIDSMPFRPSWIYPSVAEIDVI

UmpH Vmax (phosphate release from UMP), decrease in the presence of 2 μM GlnK trimer, 0.56 μM UmpH monomer, no GlnK effectors [1] [%]	UmpH catalytic efficiency (Vmax/KM) for UMP, decrease in the presence of 2 μM GlnK trimer, 0.56 μM UmpH monomer, no GlnK effectors [1] [%]	inhibition of UmpH phosphatase activity (0.5 mM UMP, 0.1 mM ADP, 0.56 μM UmpH) against increasing GlnK trimer up to 2 μM [2] [%]	Kd [3] [nM]	Kd [4] [nM]	Kd [5] [nM]	Substance
30	68	50				His-GlnK (E. coli PII signaling protein GlnK, N-terminal His tag) (from UniProt P0AC55 1-112) (natural protein)
			7.8	50.6	37.3	UmpH (ribonucleotide monophosphatase), untagged recombinant (from UniProt P0AF24 1-250) (enzyme)
